In patent publication US20250074980A1 (BRIGHAM AND WOMEN S HOSPITAL, published 2025):
Numbering of substitutions follows the chain as printed. Names and notes keep the numbering of the source.

How the values were obtained:
[1] = biological target: T1, CEACAM5 on transfected HeLa cells (human, UniProt P06731 35-685); experiment: flow cytometry, HeLa-CEACAM5 transfectants, % staining, stacked bars
T1 construct: whole, on cells; also called HeLa-CEACAM5; HeLa C5
T1 sequence (looked up): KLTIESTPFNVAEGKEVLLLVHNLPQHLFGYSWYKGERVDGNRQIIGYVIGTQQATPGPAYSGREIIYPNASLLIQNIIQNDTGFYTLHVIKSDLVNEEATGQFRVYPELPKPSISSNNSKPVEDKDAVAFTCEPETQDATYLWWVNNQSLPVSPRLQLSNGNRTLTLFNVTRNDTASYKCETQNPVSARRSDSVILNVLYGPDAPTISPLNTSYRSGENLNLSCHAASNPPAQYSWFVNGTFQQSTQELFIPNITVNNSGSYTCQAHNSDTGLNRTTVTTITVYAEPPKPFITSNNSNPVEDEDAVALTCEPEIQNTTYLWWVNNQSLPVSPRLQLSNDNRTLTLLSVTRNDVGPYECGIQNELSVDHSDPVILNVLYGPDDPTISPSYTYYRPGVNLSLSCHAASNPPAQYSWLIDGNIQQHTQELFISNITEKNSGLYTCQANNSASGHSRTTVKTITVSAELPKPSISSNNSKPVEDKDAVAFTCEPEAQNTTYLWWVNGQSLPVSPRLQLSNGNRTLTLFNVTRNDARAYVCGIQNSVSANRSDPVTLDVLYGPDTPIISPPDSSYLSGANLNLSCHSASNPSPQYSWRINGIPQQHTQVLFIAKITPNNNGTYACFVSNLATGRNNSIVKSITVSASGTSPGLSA
From the text: (§1) FIG. 11 illustrates the binding selectivity of different affinity-matured CEACAM1 antibodies. […] HELA cells were transfected with vector alone (HeLa-Neo) or vectors expressing CEACAM1, CEACAM3, CEACAM5, or CEACAM6, respectively, and stained with the indicated antibodies. […] MOPC=mouse IgG1 control antibody. Mouse antibodies as positive control for transfected CEACAM isoforms: Col-1=CEACAM3 and CEACAM5 antibody. 9A6=CEACAM6 antibody. T84.1=CEACAM cross-reactive antibody and T84.66=CEACAM5 antibody. Only 2nd FITC=No primary antibody, only secondary FITC conjugated antibody. […] Data for affinity-matured antibodies 9B3_8H3/Vκ8 S29A, 8H3_9B3/CP08_E05, and 8H3_9C2/CPO08_F05, as well as data for CEACAM8 antibody 80H3 were omitted from the FIG. due to an unusually high background signal.

His-tagged CEACAM1 [2] = biological target: T2, His-tagged CEACAM1 (human, UniProt P13688 35-428); experiment: SPR single-cycle, purified IgG captured
T2 construct: 45 kDa SPR analyte; also called CEACAM1-HIS; CEACAM1 analyte
T2 sequence: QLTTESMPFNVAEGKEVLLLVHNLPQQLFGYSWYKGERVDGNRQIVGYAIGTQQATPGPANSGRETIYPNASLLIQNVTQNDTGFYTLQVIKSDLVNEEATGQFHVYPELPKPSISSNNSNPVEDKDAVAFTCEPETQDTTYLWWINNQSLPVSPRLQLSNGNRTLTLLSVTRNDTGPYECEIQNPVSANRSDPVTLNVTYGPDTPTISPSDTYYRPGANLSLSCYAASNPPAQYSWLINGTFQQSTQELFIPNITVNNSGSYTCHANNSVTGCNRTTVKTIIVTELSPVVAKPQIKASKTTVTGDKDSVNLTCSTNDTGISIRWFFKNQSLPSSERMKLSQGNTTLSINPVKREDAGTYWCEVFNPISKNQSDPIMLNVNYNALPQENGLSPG
In short: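 Binding was measured by surface plasmon resonance in single-cycle kinetics mode on a Biacore T200, running in HBS-P+ (pH 7.4) at 25° C. His-tagged CEACAM1 served as analyte over purified IgG captured on a Series S Protein A chip. After subtraction of reference-channel and blank-run signals, kon, koff and Kd were fitted, and relative KD was expressed against the parent antibody from the same experiment.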

[3] = biological target: T3, CEACAM3 on transfected HeLa cells (human, UniProt P40198 35-252); experiment: flow cytometry, HeLa-CEACAM3 transfectants, % staining, stacked bars
T3 construct: whole, on cells; also called HeLa-CEACAM3; HeLa C3
T3 sequence (looked up): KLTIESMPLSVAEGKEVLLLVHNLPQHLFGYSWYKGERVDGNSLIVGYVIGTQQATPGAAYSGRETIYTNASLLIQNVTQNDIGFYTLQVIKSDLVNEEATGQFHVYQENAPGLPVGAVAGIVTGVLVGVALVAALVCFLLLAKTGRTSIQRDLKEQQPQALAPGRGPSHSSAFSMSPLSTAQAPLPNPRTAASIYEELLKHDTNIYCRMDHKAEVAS
From the text: as §1

His-tagged CEACAM1 [4] = biological target: T2, His-tagged CEACAM1; experiment: SPR single-cycle, supernatant IgG captured
In short: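 Antibody IgG was produced by transient PEI transfection of HEK EBNA cells in 6-well plates, with supernatants collected 5-7 days later, quantified by ELISA and filtered. Binding was measured by single-cycle surface plasmon resonance on a Biacore T200 at 25° C in HBS-P+ (pH 7.4), capturing IgG on Protein A and flowing His-tagged CEACAM1 as analyte. Kon, koff and Kd were obtained by fitting, and relative KD was expressed against the parent antibody tested in the same experiment.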

[5] = biological target: T4, CEACAM6 on transfected HeLa cells (human, UniProt P40199 35-320); experiment: flow cytometry, HeLa-CEACAM6 transfectants, % staining, stacked bars
T4 construct: whole, on cells; also called HeLa-CEACAM6; HeLa C6
T4 sequence (looked up): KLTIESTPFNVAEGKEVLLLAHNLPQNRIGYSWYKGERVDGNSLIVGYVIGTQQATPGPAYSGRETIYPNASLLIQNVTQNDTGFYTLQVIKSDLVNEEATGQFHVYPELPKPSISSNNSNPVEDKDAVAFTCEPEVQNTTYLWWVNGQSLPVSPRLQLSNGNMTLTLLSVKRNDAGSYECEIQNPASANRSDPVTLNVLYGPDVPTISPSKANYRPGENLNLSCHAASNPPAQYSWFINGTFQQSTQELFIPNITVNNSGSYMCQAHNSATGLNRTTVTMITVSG
From the text: as §1

GST-CEACAM1 = biological target: T5, GST-CEACAM1 (human, UniProt P13688 35-141, limits assumed); experiment: scFv binding ELISA on GST-CEACAM1 coated at 1.0 µg/ml, anti-HIS6-HRP and TMB
T5 construct: also called human CEACAM1-GST protein
T5 sequence: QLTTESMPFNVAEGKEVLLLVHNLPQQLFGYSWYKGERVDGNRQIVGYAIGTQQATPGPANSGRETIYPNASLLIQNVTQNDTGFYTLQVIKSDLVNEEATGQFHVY
Method: The binding of affinity matured purified scFv to human CEACAM1 was analyzed using GST-CEACAM1. A Nunc Immuno MaxiSorp 96 well flat bottom microtitre plate was pre-coated with 1.0 μg/ml GST-CEACAM1 overnight at 4° C. The following day a two-fold dilution series of VH1/Vκ8 S29A parent scFv or test scFv (50 μg/ml to 0.8 μg/ml) in PBSB was incubated for 2 hours at RT on pre-coated ELISA plates. The binding of scFv was detected with an anti-HIS6-HRP antibody and TMB substrate. The reaction was stopped with 3 M HCl, absorbance read at 450 nm on a Dynex Technologies MRX TC II plate reader and the binding curves plotted. Parent scFv (VH1/Vκ8 S29A scFv) was included on each ELISA plate as a reference. An irrelevant scFv was included on at least one plate as a negative control. It was observed that a number of scFvs had improved binding to CEACAM1 compared to the parental VH1/Vκ8 S29A scFv. […] All 34 scFv variants were reformatted to whole IgG to provide greater accuracy with regard to purity and quantitation. The reformatting further allowed for an analysis of the avidity component of antibody binding, which is influenced by the bivalent nature of IgGs. As used herein, “avidity” is the measure of the strength of binding between an antigen-binding molecule (such as an antibody or antibody fragment thereof described herein) and the pertinent antigen.

B1: CP08H03/CP08E05 (antibody, IgG4, V domains shown)
VH: EVQLLESGGGLVQPGGSLRLSCAASGFIFSSHGMSWVRQAPGKGLEWVATISSGGTYTYYPDSVKGRFTISRDNSKNTLYLQMNSLKAEDTAMYYCARHDFDYFPYWFAHWGQGTLVTVSS
VL: EIVLTQSPATLSLSPGERATLSCRANSAVSYMYWYQQKPGQAPRPWIYLTSNRATGVPARFSGSGSGTDYTLTISSLEPEDFAVYYCQQWTTNPPTFGQGTKLEIK
notes: IgG4 (S241P), kappa
In the case of B1, the binding result [1] is reported as “no binding”, the Kd (His-tagged CEACAM1 [2]) is reported as 110 nM and the koff (His-tagged CEACAM1 [2]) is reported as 0.008 s⁻¹. The kon (His-tagged CEACAM1 [2]) was 76000 M⁻¹ s⁻¹, the “relative KD to parent” value (His-tagged CEACAM1 [2]) was 4.5 and the binding result [3] was “no binding”. It also gave a Kd (His-tagged CEACAM1 [4]) of 120 nM, a koff (His-tagged CEACAM1 [4]) of 0.0085 s⁻¹ and a kon (His-tagged CEACAM1 [4]) of 71000 M⁻¹ s⁻¹. The “relative KD to parent” value (His-tagged CEACAM1 [4]) was 4.6 and the binding result [5] was “no binding”.

B2: CP08C04 (scFv)
scFv, VH-linker-VL: EVQLLESGGGLVQPGGSLRLSCAASGFTFSSHGMSWVRQAPGKGLEWVATISSGGTYTYYPDSVKGRFTISRDNSKNTLYLQMNSLKAEDTAMYYCARHDFDYDAAWFAYWGQGTLVTVSSGGGGSGGGGSGGGGSEIVLTQSPATLSLSPGERATLSCRANSAVSYMYWYQQKPGQAPRPWIYLTSNRATGVPARFSGSGSGTDYTLTISSLEPEDFAVYYCQQWSSNPPTFGQGTKLEIK
notes: purified scFv form; the IgG form is m90
In the case of B2, the “EC50 (read off the curve)” value (GST-CEACAM1) is reported as about 10 µg/mL.

B3: CP09F03 (scFv)
scFv, VH-linker-VL: B2 scFv, VH-linker-VL with S30N, S31N
notes: purified scFv form; the IgG form is m63
In the case of B3, the “EC50 (read off the curve)” value (GST-CEACAM1) is reported as about 10 µg/mL.
